Patent US20230049152A1 (Genentech, published 2023)

Target: T1, human CCR8 (human, UniProt P51685 1-355)
T1 construct: the assay field says which; also called hCCR8; huCCR8
Assay: flow cytometry, CHO-huCCR8.Gna15 cells, relative to rb.Ab4
Experimental: (§1) Evaluation of CCR8 binding of the humanized variants with a hIgG1 Fc involved screening by flow cytometry, and comparing the relative EC₅₀ and MFI on human CCR8 CHO cells to the parental rabbit antibodies. Specifically, stable CHO-huCCR8.Gna15 cells were stained with various concentrations (starting from 10 ug/ml or 66.66 nM, 1:4 serial dilution for total 8 concentration points) of Ab4 and Ab5 variants at 4° C. for 30 minutes, then washed twice with FACS buffer (PBS with 0.5% BSA and 0.2 mM EDTA) and followed by staining with AF647-anti-hIgG at 4° C. for 15 min. Cells were washed twice with FACS buffer, and re-suspended in FACS buffer with propidium iodide (0.5 ug/ml) and analyzed with iQue3 (Sartorius).

| Relative EC50 | Relative MFI | Binder |
| --- | --- | --- |
| 1.02 ratio | 0.9 ratio | hu.Ab4.H5L1 (antibody, human IgG1, kappa, V domains shown) VH: EQQLLESGGGLVQPGGSLRLSCAVSGFSLSNYAMIWVRQAPGKGLEWVGTISLGGYTYYANWAKGRFTISRDSSKTTVYLQMNSLRAEDTAVYFCARARWSTDSAIYTYAFDPWGPGTLVTVSS VL: DYQMTQSPSSLSASVGDRVTITCQASQSISSYLSWYQQKPGKRPKLLIYKASTLASGVPSRFSGSGSGTDFTLTISSLQPEDFATYYCQQGYTSSNIDNIFGGGTKVEIKR |
| 1.04 ratio | 0.87 ratio | hu.Ab4.H9L1 (antibody, human IgG1, kappa, V domains shown) VH: EQQLLESGGGLVQPGGSLRLSCAVSGFSLSNYAMIWVRQAPGKGLEWVGTISLGGYTYYANWAKGRFTISKDSSKTTVYLQMNSLRAEDTAVYYCARARWSTDSAIYTYAFDPWGPGTLVTVSS VL: DYQMTQSPSSLSASVGDRVTITCQASQSISSYLSWYQQKPGKRPKLLIYKASTLASGVPSRFSGSGSGTDFTLTISSLQPEDFATYYCQQGYTSSNIDNIFGGGTKVEIKR |
| 1.06 ratio | 0.68 ratio | hu.Ab4.H6L1 (antibody, human IgG1, kappa, V domains shown) VH: EQQLLESGGGLVQPGGSLRLSCAVSGFSLSNYAMIWVRQAPGKGLEWVGTISLGGYTYYANWAKGRFTISKDNSKTTVYLQMNSLRAEDTAVYFCARARWSTDSAIYTYAFDPWGPGTLVTVSS VL: DYQMTQSPSSLSASVGDRVTITCQASQSISSYLSWYQQKPGKRPKLLIYKASTLASGVPSRFSGSGSGTDFTLTISSLQPEDFATYYCQQGYTSSNIDNIFGGGTKVEIKR |

Further lines, the binder ahead of its results:

| Binder | Relative EC50 | Relative MFI |
| --- | --- | --- |
| hu.Ab4.H2L1 (antibody, human IgG1, kappa) heavy: not shown light: DYQMTQSPSSLSASVGDRVTITCQASQSISSYLSWYQQKPGKRPKLLIYKASTLASGVPSRFSGSGSGTDFTLTISSLQPEDFATYYCQQGYTSSNIDNIFGGGTKVEIKRTVAAPSVFIFPPSDEQLKSGTASVVCLLNNFYPREAKVQWKVDNALQSGNSQESVTEQDSKDSTYSLSSTLTLSKADYEKHKVYACEVTHQGLSSPVTKSFNRGEC | 0.99 ratio | 1.07 ratio |
| hu.Ab4.H8L1 (antibody, human IgG1, kappa, V domains shown) VH: EQQLLESGGGLVQPGGSLRLSCAVSGFSLSNYAMIWVRQAPGKGLEWVGTISLGGYTYYANWAKGRFTISKDSSKTTLYLQMNSLRAEDTAVYFCARARWSTDSAIYTYAFDPWGPGTLVTVSS VL: DYQMTQSPSSLSASVGDRVTITCQASQSISSYLSWYQQKPGKRPKLLIYKASTLASGVPSRFSGSGSGTDFTLTISSLQPEDFATYYCQQGYTSSNIDNIFGGGTKVEIKR | 1.03 ratio | 0.72 ratio |
| hu.Ab4.H7L1 (antibody, human IgG1, kappa, V domains shown) VH: EQQLLESGGGLVQPGGSLRLSCAVSGFSLSNYAMIWVRQAPGKGLEWVGTISLGGYTYYANWAKGRFTISKDSSKNTVYLQMNSLRAEDTAVYFCARARWSTDSAIYTYAFDPWGPGTLVTVSS VL: DYQMTQSPSSLSASVGDRVTITCQASQSISSYLSWYQQKPGKRPKLLIYKASTLASGVPSRFSGSGSGTDFTLTISSLQPEDFATYYCQQGYTSSNIDNIFGGGTKVEIKR | 1.05 ratio | 0.44 ratio |
| hu.Ab4.H3L1 (antibody, human IgG1, kappa, V domains shown) VH: EQQLLESGGGLVQPGGSLRLSCAASGFSLSNYAMIWVRQAPGKGLEWVGTISLGGYTYYANWAKGRFTISKDSSKTTVYLQMNSLRAEDTAVYFCARARWSTDSAIYTYAFDPWGPGTLVTVSS VL: DYQMTQSPSSLSASVGDRVTITCQASQSISSYLSWYQQKPGKRPKLLIYKASTLASGVPSRFSGSGSGTDFTLTISSLQPEDFATYYCQQGYTSSNIDNIFGGGTKVEIKR | 1 ratio | 1.02 ratio |
| hu.Ab4.H4L1 (antibody, human IgG1, kappa, V domains shown) VH: EQQLLESGGGLVQPGGSLRLSCAVSGFSLSNYAMIWVRQAPGKGLEWVSTISLGGYTYYANWAKGRFTISKDSSKTTVYLQMNSLRAEDTAVYFCARARWSTDSAIYTYAFDPWGPGTLVTVSS VL: DYQMTQSPSSLSASVGDRVTITCQASQSISSYLSWYQQKPGKRPKLLIYKASTLASGVPSRFSGSGSGTDFTLTISSLQPEDFATYYCQQGYTSSNIDNIFGGGTKVEIKR | 0.96 ratio | 1.06 ratio |

Target: T1, human CCR8
Assay: flow cytometry, CHO-huCCR8.Gna15 cells, relative to rb.Ab5
Experimental: as §1

| Relative EC50 | Relative MFI | Binder |
| --- | --- | --- |
| 2.3 ratio | 0.26 ratio | hu.Ab5.H12L1 (antibody, human IgG1, kappa, V domains shown) VH: EVQLLESGGGLVQPGGSLRLSCAASGIDLSTYAMGWVRQAPGKGLEWVSLIHRSGRTYYATWAKGRFTISRDNSKNTLYLQMNSLRAEDTAVYYCTRSYPDYSATASIWGQGTTVTVSS VL: DIQVTQSPSSLSASVGDRVTITCQASENIANALAWYQQKPGKPPKFLIYGASNLASGVPSRFSGSGSGTDFTFTISSLQPEDIATYYCQQAYYGNSFVEGTFGGGTKVEIKR |
| 1.4 ratio | 0.94 ratio | hu.Ab5.H8L1 (antibody, human IgG1, kappa, V domains shown) VH: EQQLLESGGGLVQPGGSLRLSCAVSGIDLSTYAMGWVRQAPGKGLEWIGLIHRSGRTYYATWAKGRFTISKDSSKNTVYLQMNSLRAEDTAVYFCTRSYPDYSATASIWGPGTTVTVSS VL: DIQVTQSPSSLSASVGDRVTITCQASENIANALAWYQQKPGKPPKFLIYGASNLASGVPSRFSGSGSGTDFTFTISSLQPEDIATYYCQQAYYGNSFVEGTFGGGTKVEIKR |
| 1.5 ratio | 1 ratio | hu.Ab5.H3L1 (antibody, human IgG1, kappa, V domains shown) VH: EQQLLESGGGLVQPGGSLRLSCAASGIDLSTYAMGWVRQAPGKGLEWIGLIHRSGRTYYATWAKGRFTISKDSSKTTVYLQMNSLRAEDTAVYFCTRSYPDYSATASIWGPGTTVTVSS VL: DIQVTQSPSSLSASVGDRVTITCQASENIANALAWYQQKPGKPPKFLIYGASNLASGVPSRFSGSGSGTDFTFTISSLQPEDIATYYCQQAYYGNSFVEGTFGGGTKVEIKR |
| 1.2 ratio | 0.87 ratio | hu.Ab5.H10L1 (antibody, human IgG1, kappa, V domains shown) VH: EQQLLESGGGLVQPGGSLRLSCAVSGIDLSTYAMGWVRQAPGKGLEWIGLIHRSGRTYYATWAKGRFTISKDSSKTTVYLQMNSLRAEDTAVYYCTRSYPDYSATASIWGPGTTVTVSS VL: DIQVTQSPSSLSASVGDRVTITCQASENIANALAWYQQKPGKPPKFLIYGASNLASGVPSRFSGSGSGTDFTFTISSLQPEDIATYYCQQAYYGNSFVEGTFGGGTKVEIKR |
| 2.4 ratio | 0.97 ratio | hu.Ab5.H6L1 (antibody, human IgG1, kappa, V domains shown) VH: EQQLLESGGGLVQPGGSLRLSCAVSGIDLSTYAMGWVRQAPGKGLEWIGLIHRSGRTYYATWAKGRFTISRDSSKTTVYLQMNSLRAEDTAVYFCTRSYPDYSATASIWGPGTTVTVSS VL: DIQVTQSPSSLSASVGDRVTITCQASENIANALAWYQQKPGKPPKFLIYGASNLASGVPSRFSGSGSGTDFTFTISSLQPEDIATYYCQQAYYGNSFVEGTFGGGTKVEIKR |

Second part, the binder before the results:

| Binder | Relative EC50 | Relative MFI |
| --- | --- | --- |
| hu.Ab5.H2L1 (antibody, human IgG1, kappa) heavy: not shown light: DIQVTQSPSSLSASVGDRVTITCQASENIANALAWYQQKPGKPPKFLIYGASNLASGVPSRFSGSGSGTDFTFTISSLQPEDIATYYCQQAYYGNSFVEGTFGGGTKVEIKRTVAAPSVFIFPPSDEQLKSGTASVVCLLNNFYPREAKVQWKVDNALQSGNSQESVTEQDSKDSTYSLSSTLTLSKADYEKHKVYACEVTHQGLSSPVTKSFNRGEC | 1.1 ratio | 0.93 ratio |
| hu.Ab5.H4L1 (antibody, human IgG1, kappa, V domains shown) VH: EQQLLESGGGLVQPGGSLRLSCAVSGIDLSTYAMGWVRQAPGKGLEWVGLIHRSGRTYYATWAKGRFTISKDSSKTTVYLQMNSLRAEDTAVYFCTRSYPDYSATASIWGPGTTVTVSS VL: DIQVTQSPSSLSASVGDRVTITCQASENIANALAWYQQKPGKPPKFLIYGASNLASGVPSRFSGSGSGTDFTFTISSLQPEDIATYYCQQAYYGNSFVEGTFGGGTKVEIKR | 1.5 ratio | 0.95 ratio |
| hu.Ab5.H5L1 (antibody, human IgG1, kappa, V domains shown) VH: EQQLLESGGGLVQPGGSLRLSCAVSGIDLSTYAMGWVRQAPGKGLEWISLIHRSGRTYYATWAKGRFTISKDSSKTTVYLQMNSLRAEDTAVYFCTRSYPDYSATASIWGPGTTVTVSS VL: DIQVTQSPSSLSASVGDRVTITCQASENIANALAWYQQKPGKPPKFLIYGASNLASGVPSRFSGSGSGTDFTFTISSLQPEDIATYYCQQAYYGNSFVEGTFGGGTKVEIKR | 7.6 ratio | 0.35 ratio |
| hu.Ab5.H11L1 (antibody, human IgG1, kappa) heavy: not shown light: DIQVTQSPSSLSASVGDRVTITCQASENIANALAWYQQKPGKPPKFLIYGASNLASGVPSRFSGSGSGTDFTFTISSLQPEDIATYYCQQAYYGNSFVEGTFGGGTKVEIKRTVAAPSVFIFPPSDEQLKSGTASVVCLLNNFYPREAKVQWKVDNALQSGNSQESVTEQDSKDSTYSLSSTLTLSKADYEKHKVYACEVTHQGLSSPVTKSFNRGEC | 1.3 ratio | 0.87 ratio |
| hu.Ab5.H9L1 (antibody, human IgG1, kappa, V domains shown) VH: EQQLLESGGGLVQPGGSLRLSCAVSGIDLSTYAMGWVRQAPGKGLEWIGLIHRSGRTYYATWAKGRFTISKDSSKTTLYLQMNSLRAEDTAVYFCTRSYPDYSATASIWGPGTTVTVSS VL: DIQVTQSPSSLSASVGDRVTITCQASENIANALAWYQQKPGKPPKFLIYGASNLASGVPSRFSGSGSGTDFTFTISSLQPEDIATYYCQQAYYGNSFVEGTFGGGTKVEIKR | 1.3 ratio | 0.92 ratio |
| hu.Ab5.H7L1 (antibody, human IgG1, kappa, V domains shown) VH: EQQLLESGGGLVQPGGSLRLSCAVSGIDLSTYAMGWVRQAPGKGLEWIGLIHRSGRTYYATWAKGRFTISKDNSKTTVYLQMNSLRAEDTAVYFCTRSYPDYSATASIWGPGTTVTVSS VL: DIQVTQSPSSLSASVGDRVTITCQASENIANALAWYQQKPGKPPKFLIYGASNLASGVPSRFSGSGSGTDFTFTISSLQPEDIATYYCQQAYYGNSFVEGTFGGGTKVEIKR | 2.2 ratio | 0.96 ratio |
